Common to all, as to assay: flow cytometry, transfected HEK-293T
(A flow cytometer gives signals particle by particle.)

The target of experiment [1] is T1, huBeta_Klotho (1-633, 852-1044) (muBeta KLOTHO 632G-849Q) (human; murine, UniProt Q86Z14 1-1044).
T1 construct: also called Chimera 10; Construct 10

The target of experiment [2] is T2, huBeta_Klotho(1-301, 509-1044) (muBetaKLOTHO S302-F506) (human; murine, UniProt Q86Z14 1-1044).
T2 construct: also called Chimera 6; Construct 6

Experiment [3] concerns the target T3, huBeta_Klotho (1-301, 509-743, 967-1044) (muBeta KLOTHO 302-506, 742-964) (human; murine, UniProt Q86Z14 1-1044).
T3 construct: also called Chimera 14; Construct 14
T3 chain: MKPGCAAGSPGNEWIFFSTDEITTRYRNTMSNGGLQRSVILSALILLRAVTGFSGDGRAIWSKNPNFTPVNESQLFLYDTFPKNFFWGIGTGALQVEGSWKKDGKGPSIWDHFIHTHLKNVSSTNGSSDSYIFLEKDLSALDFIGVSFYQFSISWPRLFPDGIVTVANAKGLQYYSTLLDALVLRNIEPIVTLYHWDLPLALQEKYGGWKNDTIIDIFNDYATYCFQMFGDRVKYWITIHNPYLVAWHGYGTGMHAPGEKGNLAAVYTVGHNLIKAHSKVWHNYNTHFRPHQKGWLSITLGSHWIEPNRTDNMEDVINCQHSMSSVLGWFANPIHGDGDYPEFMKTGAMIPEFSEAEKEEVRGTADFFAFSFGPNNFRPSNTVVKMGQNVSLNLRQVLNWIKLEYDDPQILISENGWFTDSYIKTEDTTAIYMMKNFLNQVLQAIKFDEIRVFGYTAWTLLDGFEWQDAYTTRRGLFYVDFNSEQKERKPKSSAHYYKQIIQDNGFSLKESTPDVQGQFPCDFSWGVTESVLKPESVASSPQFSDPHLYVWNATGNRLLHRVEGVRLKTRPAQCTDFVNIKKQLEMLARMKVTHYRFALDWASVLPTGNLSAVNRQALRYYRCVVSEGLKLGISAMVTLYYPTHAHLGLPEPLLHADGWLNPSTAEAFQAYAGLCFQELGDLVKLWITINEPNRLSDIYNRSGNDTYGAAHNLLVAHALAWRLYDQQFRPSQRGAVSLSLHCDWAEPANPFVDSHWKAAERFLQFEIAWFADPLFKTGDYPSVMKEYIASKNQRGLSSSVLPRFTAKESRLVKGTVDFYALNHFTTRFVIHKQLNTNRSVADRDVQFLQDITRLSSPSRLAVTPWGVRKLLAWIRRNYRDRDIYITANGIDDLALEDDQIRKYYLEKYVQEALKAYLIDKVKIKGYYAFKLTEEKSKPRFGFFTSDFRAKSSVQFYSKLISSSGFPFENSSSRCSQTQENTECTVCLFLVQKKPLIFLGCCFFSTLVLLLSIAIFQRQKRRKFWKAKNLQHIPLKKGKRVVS

Experiment [4] has as its target T4, huBeta_Klotho (1-193, 419-1044) (muBetaKLOTHO Y194-416G) (human; murine, UniProt Q86Z14 1-1044).
T4 construct: also called Chimera 5; Construct 5

In experiment [5] the target is T5, huBeta_Klotho (1-736, 967-1044) (muBeta KLOTHO 735A-963S) (human; murine, UniProt Q86Z14 1-1044).
T5 construct: also called Chimera 11; Construct 11

For experiment [6], the target named is T6, huBeta_Klotho (1-507) (muBetaKLOTHO 506F-1045S) (human; murine, UniProt Q99N32 1-1043).
T6 construct: also called Chimera 2; Construct 2

For experiment [7], the target named is T7, huBeta_Klotho (82-1044) (muBeta KLOTHO 1-81F) (murine; human, UniProt Q86Z14 1-1044).
T7 construct: also called Chimera 12; Construct 12

Experiment [8] addresses T8, huBeta_Klotho (1-81, 194-1044) (muBeta KLOTHO 82P-193L) (human; murine, UniProt Q86Z14 1-1044).
T8 construct: also called Chimera 13; Construct 13

The target of experiment [9] is T9, huBeta_Klotho (1-81, 303-1044) (muBetaKLOTHO 82P-302S) (human; murine, UniProt Q86Z14 1-1044).
T9 construct: also called Chimera 4; Construct 4

Experiment [10] has as its target T10, huBeta_Klotho (194-1044) (muBetaKLOTHO 1-L193) (murine; human, UniProt Q86Z14 1-1044).
T10 construct: also called Chimera 3; Construct 3

Substitutions are numbered along the chain they refer to.

B1: 67C10.1 (antibody, V domains shown)
VH: EVQLVQSGAEVKKPGESLKISCQGSGYSFSSYWIGWVRQMPGKGLEWMGIIYPGDSDTRYSPSFQGQVTISADKSINTAYLQWSSLKASDTAIYYCARRASRGYRYGLAFAIWGQGTMVTVSS
VL: DFVMTQTPLSLPVTPGEPASISCRSSQSLLNSDDGNTYLDWYLQKPGQSPQLLIYTLSYRASGVPDRFSGSGSGTDFTLKISRVEAEDVGVYYCMQRIEFPITFGQGTRLEIKR
As to B1, the binding result in [1] is on record as “no binding”; in [2], “binds”; in [3], “no binding”; in experiment [4] it was “binds”; in experiment [5] it was “no binding”; in experiment [6] it was “no binding”. Further, the binding result in experiment [7], in [8], in [9] and in experiment [10] was “binds” each time.

B2: 65C3.1 (antibody, V domains shown)
VH: QVQLQESGPGLVKPSETLSLTCTVSGGSISSYYWSWIRQPPGKGLEWIGYIYYTGSTNYNPSLKSRVTISVDTSKNQFSLKLSSVTAADTAVYYCAREYYYGSGSYYPWGQGTLVTVSS
VL: EMVMTQSPATLSVSPGERATLSCRASQSVSSQLAWYQEKPGRAPRLLIYGASNRAIDIPARLSGSGSGTEFTLTISSLQSEDFAVYYCQQYNNWPWTFGQGTKVEFKR
As for B2, the binding result in [1] was “binds”; in [2], “binds”; in experiment [3], “no binding”; in experiment [4], “binds”; in [5], “no binding”; in experiment [6], “no binding”. Further, the binding result in [7], in experiment [8], in [9] and in experiment [10] was “binds” in each case.

B3: 67F5.1 (antibody, V domains shown)
VH: B2 VH with Q5K, T54S, S56N
VL: EIVMTQSPATLSVSPGERVTLSCRASQSVSSNLAWYQQKPGQAPRLLIHGSSNRAIGIPARFSGSGSGTEFTLTISSLQSADFAVYNCQQYEIWPWTFGQGTKVEIKR
In the case of B3, the binding result in [1] is reported as “no binding”; in [2] it was “binds”; in experiment [3], “no binding”; in [4] it was “binds”; in experiment [5], “no binding”; in [6], “no binding”. Besides, the binding result in experiment [7], in experiment [8], in experiment [9] and in experiment [10] was “binds” throughout.

B4: 49G3.3 (antibody, V domains shown)
VH: QVTLKESGPVLVKPTETLTLTCTVSGFSLSNPRMGVSWIRQPPGKALEWLTHIFSNDEKSYSTSLKSRLTISKDTSKSQVVLSMTNMDPVDTATYYCVRVDTLNYHYYGMDVWGQGTTVTVSS
VL: DIQMTQSPSSLSASIGDRVTITCQASQGISNYLNWYQQKPGKAPKLLIYDASNLETGVPSRFSGSGSGTDFTFTISSLQPEDIATYYCHQYDDLPLTFGGGTKVEIRR
Turning to B4, the binding result in experiment [1] is “binds”; in experiment [2] it was “no binding”; in experiment [3], “no binding”; in [4], “no binding”; in experiment [5], “binds”; in experiment [6], “binds”. Moreover, the binding result in experiment [7] is “no binding”; in experiment [8], “binds”; in [9] it was “binds”; in experiment [10], “no binding”.

B5: 51E5.1 (antibody, V domains shown)
VH: QVQLQQWGAGLLKPSETLSLTCAVYGGSFSGYYWSWIRQPPGKGLEWIGELDHSGSINYNPSLKSRVTISVDTSKNQFSLKLTSVTAADTAVYYCARVLGSTLDYWGQGTLVTVSS
VL: DIQMTQSPSSLSASVGDRVTITCRASQDIRNDLGWYQQKPGKAPNRLIYAASSLQFGVPSRFSGSGSGTEFTLTISSLQPEDFATYYCLQHSSYPLTFGGGTRVEIKR
As to B5, the binding result in experiment [1] is “no binding”; in experiment [2], “binds”; in experiment [3], “no binding”; in [4], “binds”; in experiment [5], “no binding”; in experiment [6], “no binding”. The binding result in [7], in experiment [8], in [9] and in experiment [10] was “binds” throughout.

B6: 66G2.1 (antibody, V domains shown)
VH: QVQLVESGGGVVQPGRSLRLSCAASGFTFSSYGMHWVRQAPGKGLEWVAGISYDGSNKNYADSVKGRITISRDNPKNTLYLQMNSLRAEDTAVYYCATTVTKEDYYYYGMDVWGQGTTVTVSS
VL: B5 VL with D28G, N45K, S53N, F56S, E70K, S76N, H91L, S92N, S93G, R103K
Take B6: the binding result in [1] is reported as “no binding”; in [2], “binds”; in [3], “no binding”; in [4], “binds”; in [5] it was “no binding”; in experiment [6], “no binding”. For the same molecule, the binding result in [7], in experiment [8], in experiment [9] and in [10] was “binds” throughout.

(Values after US20120328616A1 (Amgen, published 2012).)
